From paper PMC8748612, “Maximizing response to intratumoral immunotherapy in mice by tuning local retention” (Nature Communications, 2022)

biological target: Collagen I (Gibco), coated on 96-well plates (UniProt P02454 152-1207; P02466 86-1125); assay: ELISA; settings: not given
Sequence (P02454 152-1207, chain 1 of 2): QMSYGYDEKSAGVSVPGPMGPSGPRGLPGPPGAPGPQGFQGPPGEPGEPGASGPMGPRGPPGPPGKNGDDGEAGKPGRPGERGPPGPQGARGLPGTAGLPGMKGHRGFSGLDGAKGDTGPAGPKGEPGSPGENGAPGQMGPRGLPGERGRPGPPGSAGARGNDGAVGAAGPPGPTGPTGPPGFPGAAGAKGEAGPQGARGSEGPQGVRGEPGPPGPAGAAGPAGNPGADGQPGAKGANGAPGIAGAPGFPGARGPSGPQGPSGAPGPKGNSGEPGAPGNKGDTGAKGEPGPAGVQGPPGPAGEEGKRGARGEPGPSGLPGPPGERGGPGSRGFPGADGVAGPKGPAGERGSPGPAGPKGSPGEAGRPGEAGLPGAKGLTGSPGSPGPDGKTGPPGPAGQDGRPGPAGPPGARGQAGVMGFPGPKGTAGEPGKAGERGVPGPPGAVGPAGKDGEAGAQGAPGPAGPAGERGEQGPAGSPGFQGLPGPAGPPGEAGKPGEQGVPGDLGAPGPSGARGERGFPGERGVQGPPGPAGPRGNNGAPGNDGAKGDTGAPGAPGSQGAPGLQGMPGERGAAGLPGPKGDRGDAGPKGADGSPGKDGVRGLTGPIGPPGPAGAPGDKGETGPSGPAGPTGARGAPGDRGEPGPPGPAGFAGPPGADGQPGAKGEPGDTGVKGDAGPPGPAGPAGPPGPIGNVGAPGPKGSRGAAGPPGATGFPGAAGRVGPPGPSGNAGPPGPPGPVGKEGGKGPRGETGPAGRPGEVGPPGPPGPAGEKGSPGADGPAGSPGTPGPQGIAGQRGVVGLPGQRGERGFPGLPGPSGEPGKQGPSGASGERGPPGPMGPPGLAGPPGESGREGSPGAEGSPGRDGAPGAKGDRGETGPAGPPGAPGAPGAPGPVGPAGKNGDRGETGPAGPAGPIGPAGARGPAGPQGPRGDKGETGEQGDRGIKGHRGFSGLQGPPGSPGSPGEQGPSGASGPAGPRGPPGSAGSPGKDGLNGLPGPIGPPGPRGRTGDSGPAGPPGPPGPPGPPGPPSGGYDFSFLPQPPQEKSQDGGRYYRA
Sequence (P02466 86-1125, chain 2 of 2): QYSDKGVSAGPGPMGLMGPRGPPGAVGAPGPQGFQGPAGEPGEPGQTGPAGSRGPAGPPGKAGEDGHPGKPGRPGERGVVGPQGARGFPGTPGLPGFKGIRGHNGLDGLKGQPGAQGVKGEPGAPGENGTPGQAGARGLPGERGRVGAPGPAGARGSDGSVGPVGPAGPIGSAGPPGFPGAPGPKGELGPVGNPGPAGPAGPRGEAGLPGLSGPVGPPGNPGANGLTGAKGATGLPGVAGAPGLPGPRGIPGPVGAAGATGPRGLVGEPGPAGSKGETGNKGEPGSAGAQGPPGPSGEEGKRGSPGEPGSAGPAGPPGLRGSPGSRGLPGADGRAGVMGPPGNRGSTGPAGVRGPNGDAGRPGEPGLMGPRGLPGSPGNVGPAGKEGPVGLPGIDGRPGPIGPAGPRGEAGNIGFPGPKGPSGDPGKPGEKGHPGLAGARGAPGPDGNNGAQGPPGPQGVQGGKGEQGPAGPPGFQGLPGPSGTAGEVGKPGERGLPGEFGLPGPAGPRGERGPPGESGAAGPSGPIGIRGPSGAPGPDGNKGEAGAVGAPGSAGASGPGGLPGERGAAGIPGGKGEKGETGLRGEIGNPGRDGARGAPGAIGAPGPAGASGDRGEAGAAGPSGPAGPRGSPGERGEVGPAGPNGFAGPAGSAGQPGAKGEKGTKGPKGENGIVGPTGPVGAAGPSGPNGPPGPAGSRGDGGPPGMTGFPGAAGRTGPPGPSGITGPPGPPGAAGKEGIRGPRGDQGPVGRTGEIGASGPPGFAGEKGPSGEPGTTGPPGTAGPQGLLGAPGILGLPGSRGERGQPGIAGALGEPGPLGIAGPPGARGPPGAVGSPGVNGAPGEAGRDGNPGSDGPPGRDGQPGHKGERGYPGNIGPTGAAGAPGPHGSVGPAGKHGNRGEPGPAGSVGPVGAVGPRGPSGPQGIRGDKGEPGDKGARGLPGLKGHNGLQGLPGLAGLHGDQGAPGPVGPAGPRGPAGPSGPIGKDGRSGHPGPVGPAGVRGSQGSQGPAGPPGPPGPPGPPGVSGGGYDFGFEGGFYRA

Kd [nM]	Molecule
> 1000	LAIRx-LAIRx-MSA^H464Q-his (other) QEGSLPDITIFPNSSLMISQGTFVTVVCSYSDKHDLYNMVALAKDGSTFMEKSTEPYKTEDEFEIGPVNETITGHYSCIYSKGITWSERSKTLELKVIKENVIQTPAPGPTSDTSWLKTYSIYQEGSLPDITIFPNSSLMISQGTFVTVVCSYSDKHDLYNMVALAKDGSTFMEKSTEPYKTEDEFEIGPVNETITGHYSCIYSKGITWSERSKTLELKVIKENVIQTPAPGPTSDTSWLKTYSIYEAHKSEIAHRYNDLGEQHFKGLVLIAFSQYLQKCSYDEHAKLVQEVTDFAKTCVADESAANCDKSLHTLFGDKLCAIPNLRENYGELADCCTKQEPERNECFLQHKDDNPSLPPFERPEAEAMCTSFKENPTTFMGHYLHEVARRHPYFYAPELLYYAEQYNEILTQCCAEADKESCLTPKLDGVKEKALVSSVRQRMKCSSMQKFGERAFKAWAVARLSQTFPNADFAEITKLATDLTKVNKECCHGDLLECADDRAELAKYMCENQATISSKLQTCCDKPLLKKAHCLSEVEHDTMPADLPAIAADFVEDQEVCKNYAEAKDVFLGTFLYEYSRRHPDYSVSLLLRLAKKYEATLEKCCAEANPPACYGTVLAEFQPLVEEPKNLVKTNCDLYEKLGEYGFQNAILVRYTQKAPQVSTPTLVEAARNLGRVGTKCCTLPEDQRLPCVEDYLSAILNRVCLLQEKTPVSEHVTKCCSGSLVERRPCFSALTVDETYVPKEFKAETFTFHSDICTLPEKEKQIKKQTALAELVKHKPKATAEQLKTVMDDFAQFLDTCCKAADKDTCFSTEGPNLVTRCKDALA
> 1000	LAIRx-his (domain or fragment) QEGSLPDITIFPNSSLMISQGTFVTVVCSYSDKHDLYNMVALAKDGSTFMEKSTEPYKTEDEFEIGPVNETITGHYSCIYSKGITWSERSKTLELKVIKENVIQTPAPGPTSDTSWLKTYSIY
102	LAIR-his (domain or fragment) QEGSLPDITIFPNSSLMISQGTFVTVVCSYSDKHDLYNMVRLEKDGSTFMEKSTEPYKTEDEFEIGPVNETITGHYSCIYSKGITWSERSKTLELKVIKENVIQTPAPGPTSDTSWLKTYSIY

biological target: T1, collagen type I (UniProt P02454 152-1207; P02466 86-1125); assay: ELISA; Collagen I (Gibco) coated 96-well plates; LAIR-MSA fusion proteins in PBSTA for 4 h at room temperature; detected with HRP-conjugated anti-6xHis; mean, n = 2; settings: not given
T1 construct: collagen type I, alpha-1 chain; collagen type I, alpha-2 chain; two alpha-1 chains and one alpha-2 chain, and rat as the source, are surmised; also called Collagen I (Gibco); native collagen; source: bought: Gibco
T1 sequence (P02454 152-1207, chain 1 of 2): as the sequence (P02454 152-1207, chain 1 of 2) above
T1 sequence (P02466 86-1125, chain 2 of 2): as the sequence (P02466 86-1125, chain 2 of 2) above

Kd [nM]	Molecule
17	LAIR-MSA (from UniProt P07724 25-608)

same assay, conditions: both partners purified

Molecule	Kd [nM]
LAIR30.w.A V27A,D45G-MSA (other) QEGSLPDITIFPNSSLMISQGTFVTVACSYSDKHDLYNMVRLEKGGSTFMEKSTEPYKTEDEFEIGPVNETITGHYSCIYSKGITWSERSKTLELKVIKENVIQTPAPGPTSDTSWLKTYSIYEAHKSEIAHRYNDLGEQHFKGLVLIAFSQYLQKCSYDEHAKLVQEVTDFAKTCVADESAANCDKSLHTLFGDKLCAIPNLRENYGELADCCTKQEPERNECFLQHKDDNPSLPPFERPEAEAMCTSFKENPTTFMGHYLHEVARRHPYFYAPELLYYAEQYNEILTQCCAEADKESCLTPKLDGVKEKALVSSVRQRMKCSSMQKFGERAFKAWAVARLSQTFPNADFAEITKLATDLTKVNKECCHGDLLECADDRAELAKYMCENQATISSKLQTCCDKPLLKKAHCLSEVEHDTMPADLPAIAADFVEDQEVCKNYAEAKDVFLGTFLYEYSRRHPDYSVSLLLRLAKKYEATLEKCCAEANPPACYGTVLAEFQPLVEEPKNLVKTNCDLYEKLGEYGFQNAILVRYTQKAPQVSTPTLVEAARNLGRVGTKCCTLPEDQRLPCVEDYLSAILNRVCLLHEKTPVSEHVTKCCSGSLVERRPCFSALTVDETYVPKEFKAETFTFHSDICTLPEKEKQIKKQTALAELVKHKPKATAEQLKTVMDDFAQFLDTCCKAADKDTCFSTEGPNLVTRCKDALA	120
LAIR30.d.D E43A-MSA (other) QEGSLPDITIFPNSSLMISQGTFVTVVCSYSDKHDLYNMVRLAKDGSTFMEKSTEPYKTEDEFEIGPVNETITGHYSCIYSKGITWSERSKTLELKVIKENVIQTPAPGPTSDTSWLKTYSIYEAHKSEIAHRYNDLGEQHFKGLVLIAFSQYLQKCSYDEHAKLVQEVTDFAKTCVADESAANCDKSLHTLFGDKLCAIPNLRENYGELADCCTKQEPERNECFLQHKDDNPSLPPFERPEAEAMCTSFKENPTTFMGHYLHEVARRHPYFYAPELLYYAEQYNEILTQCCAEADKESCLTPKLDGVKEKALVSSVRQRMKCSSMQKFGERAFKAWAVARLSQTFPNADFAEITKLATDLTKVNKECCHGDLLECADDRAELAKYMCENQATISSKLQTCCDKPLLKKAHCLSEVEHDTMPADLPAIAADFVEDQEVCKNYAEAKDVFLGTFLYEYSRRHPDYSVSLLLRLAKKYEATLEKCCAEANPPACYGTVLAEFQPLVEEPKNLVKTNCDLYEKLGEYGFQNAILVRYTQKAPQVSTPTLVEAARNLGRVGTKCCTLPEDQRLPCVEDYLSAILNRVCLLHEKTPVSEHVTKCCSGSLVERRPCFSALTVDETYVPKEFKAETFTFHSDICTLPEKEKQIKKQTALAELVKHKPKATAEQLKTVMDDFAQFLDTCCKAADKDTCFSTEGPNLVTRCKDALA	220
LAIR30.w.C E51G-MSA (other) QEGSLPDITIFPNSSLMISQGTFVTVVCSYSDKHDLYNMVRLEKDGSTFMGKSTEPYKTEDEFEIGPVNETITGHYSCIYSKGITWSERSKTLELKVIKENVIQTPAPGPTSDTSWLKTYSIYEAHKSEIAHRYNDLGEQHFKGLVLIAFSQYLQKCSYDEHAKLVQEVTDFAKTCVADESAANCDKSLHTLFGDKLCAIPNLRENYGELADCCTKQEPERNECFLQHKDDNPSLPPFERPEAEAMCTSFKENPTTFMGHYLHEVARRHPYFYAPELLYYAEQYNEILTQCCAEADKESCLTPKLDGVKEKALVSSVRQRMKCSSMQKFGERAFKAWAVARLSQTFPNADFAEITKLATDLTKVNKECCHGDLLECADDRAELAKYMCENQATISSKLQTCCDKPLLKKAHCLSEVEHDTMPADLPAIAADFVEDQEVCKNYAEAKDVFLGTFLYEYSRRHPDYSVSLLLRLAKKYEATLEKCCAEANPPACYGTVLAEFQPLVEEPKNLVKTNCDLYEKLGEYGFQNAILVRYTQKAPQVSTPTLVEAARNLGRVGTKCCTLPEDQRLPCVEDYLSAILNRVCLLHEKTPVSEHVTKCCSGSLVERRPCFSALTVDETYVPKEFKAETFTFHSDICTLPEKEKQIKKQTALAELVKHKPKATAEQLKTVMDDFAQFLDTCCKAADKDTCFSTEGPNLVTRCKDALA	170

Results, then the molecule that gave them:

Kd [nM]	Molecule
130	LAIR30.w.B F49S-MSA (other) QEGSLPDITIFPNSSLMISQGTFVTVVCSYSDKHDLYNMVRLEKDGSTSMEKSTEPYKTEDEFEIGPVNETITGHYSCIYSKGITWSERSKTLELKVIKENVIQTPAPGPTSDTSWLKTYSIYEAHKSEIAHRYNDLGEQHFKGLVLIAFSQYLQKCSYDEHAKLVQEVTDFAKTCVADESAANCDKSLHTLFGDKLCAIPNLRENYGELADCCTKQEPERNECFLQHKDDNPSLPPFERPEAEAMCTSFKENPTTFMGHYLHEVARRHPYFYAPELLYYAEQYNEILTQCCAEADKESCLTPKLDGVKEKALVSSVRQRMKCSSMQKFGERAFKAWAVARLSQTFPNADFAEITKLATDLTKVNKECCHGDLLECADDRAELAKYMCENQATISSKLQTCCDKPLLKKAHCLSEVEHDTMPADLPAIAADFVEDQEVCKNYAEAKDVFLGTFLYEYSRRHPDYSVSLLLRLAKKYEATLEKCCAEANPPACYGTVLAEFQPLVEEPKNLVKTNCDLYEKLGEYGFQNAILVRYTQKAPQVSTPTLVEAARNLGRVGTKCCTLPEDQRLPCVEDYLSAILNRVCLLHEKTPVSEHVTKCCSGSLVERRPCFSALTVDETYVPKEFKAETFTFHSDICTLPEKEKQIKKQTALAELVKHKPKATAEQLKTVMDDFAQFLDTCCKAADKDTCFSTEGPNLVTRCKDALA
96	LAIR30.w.E F63L-MSA (other) QEGSLPDITIFPNSSLMISQGTFVTVVCSYSDKHDLYNMVRLEKDGSTFMEKSTEPYKTEDELEIGPVNETITGHYSCIYSKGITWSERSKTLELKVIKENVIQTPAPGPTSDTSWLKTYSIYEAHKSEIAHRYNDLGEQHFKGLVLIAFSQYLQKCSYDEHAKLVQEVTDFAKTCVADESAANCDKSLHTLFGDKLCAIPNLRENYGELADCCTKQEPERNECFLQHKDDNPSLPPFERPEAEAMCTSFKENPTTFMGHYLHEVARRHPYFYAPELLYYAEQYNEILTQCCAEADKESCLTPKLDGVKEKALVSSVRQRMKCSSMQKFGERAFKAWAVARLSQTFPNADFAEITKLATDLTKVNKECCHGDLLECADDRAELAKYMCENQATISSKLQTCCDKPLLKKAHCLSEVEHDTMPADLPAIAADFVEDQEVCKNYAEAKDVFLGTFLYEYSRRHPDYSVSLLLRLAKKYEATLEKCCAEANPPACYGTVLAEFQPLVEEPKNLVKTNCDLYEKLGEYGFQNAILVRYTQKAPQVSTPTLVEAARNLGRVGTKCCTLPEDQRLPCVEDYLSAILNRVCLLHEKTPVSEHVTKCCSGSLVERRPCFSALTVDETYVPKEFKAETFTFHSDICTLPEKEKQIKKQTALAELVKHKPKATAEQLKTVMDDFAQFLDTCCKAADKDTCFSTEGPNLVTRCKDALA
63	LAIR30.w.F S90A-MSA (other) QEGSLPDITIFPNSSLMISQGTFVTVVCSYSDKHDLYNMVRLEKDGSTFMEKSTEPYKTEDEFEIGPVNETITGHYSCIYSKGITWSERAKTLELKVIKENVIQTPAPGPTSDTSWLKTYSIYEAHKSEIAHRYNDLGEQHFKGLVLIAFSQYLQKCSYDEHAKLVQEVTDFAKTCVADESAANCDKSLHTLFGDKLCAIPNLRENYGELADCCTKQEPERNECFLQHKDDNPSLPPFERPEAEAMCTSFKENPTTFMGHYLHEVARRHPYFYAPELLYYAEQYNEILTQCCAEADKESCLTPKLDGVKEKALVSSVRQRMKCSSMQKFGERAFKAWAVARLSQTFPNADFAEITKLATDLTKVNKECCHGDLLECADDRAELAKYMCENQATISSKLQTCCDKPLLKKAHCLSEVEHDTMPADLPAIAADFVEDQEVCKNYAEAKDVFLGTFLYEYSRRHPDYSVSLLLRLAKKYEATLEKCCAEANPPACYGTVLAEFQPLVEEPKNLVKTNCDLYEKLGEYGFQNAILVRYTQKAPQVSTPTLVEAARNLGRVGTKCCTLPEDQRLPCVEDYLSAILNRVCLLHEKTPVSEHVTKCCSGSLVERRPCFSALTVDETYVPKEFKAETFTFHSDICTLPEKEKQIKKQTALAELVKHKPKATAEQLKTVMDDFAQFLDTCCKAADKDTCFSTEGPNLVTRCKDALA
